In assay [1] the target is T1, recombinant human Axl-Fc chimera (R&D Systems, Cat. no. 154-AL) (human, UniProt P30530 26-451).
T1 construct: extracellular domain; Bought reagent; also called rhAxl-Fc; rhAxl; not shown: Fc part (and any linker or tag) of the bought chimera; not described
Put plainly: SPR, Biacore 3000, 25 C, rhAxl-Fc immobilised on CM5 (190 RU); half-life of the complex as ln2/koff. As for the experimental part: (§1) The precise kinetic analysis was performed using BIA evaluation software and curve fitting according to 1:1 Langmuir binding model.
(Surface plasmon resonance follows binding to a sensor surface in real time, without labels.)

Assay [2] deals with T1, recombinant human Axl-Fc chimera (R&D …). Put plainly: SPR, Biacore 3000, 25 C, rhAxl-Fc immobilised on CM5 (190 RU), antibody injected, 1:1 Langmuir model. As to the method: as §1
Assay [3] deals with T2, recombinant human Mer-Fc chimera (R&D Systems, Cat. no. 891-MR) (human, UniProt Q12866 21-505).
T2 construct: Bought reagent; also called rhMer-Fc; rhMer; not shown: Fc part (and any linker or tag) of the bought chimera; not described
T2 sequence: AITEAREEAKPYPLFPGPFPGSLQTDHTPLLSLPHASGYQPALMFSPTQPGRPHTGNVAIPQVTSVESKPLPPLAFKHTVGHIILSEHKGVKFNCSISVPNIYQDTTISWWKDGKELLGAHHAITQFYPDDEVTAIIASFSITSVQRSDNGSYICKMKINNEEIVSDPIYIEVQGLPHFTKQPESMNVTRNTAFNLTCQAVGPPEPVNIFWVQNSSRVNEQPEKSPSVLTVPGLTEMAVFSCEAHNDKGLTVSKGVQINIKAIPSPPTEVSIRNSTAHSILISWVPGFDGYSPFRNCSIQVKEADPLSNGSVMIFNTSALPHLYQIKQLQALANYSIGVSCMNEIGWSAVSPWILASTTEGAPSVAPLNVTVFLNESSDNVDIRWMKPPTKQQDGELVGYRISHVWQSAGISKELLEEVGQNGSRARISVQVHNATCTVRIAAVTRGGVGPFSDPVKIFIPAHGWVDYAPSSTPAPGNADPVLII
Put plainly: SPR (Biacore 3000), rhMer-Fc immobilised on a CM5 chip, antibody injected for 3 min [panel 10G5]. As to the method:
(§2) All binding experiments were performed using Biacore 3000 instrument (GE Healthcare) at 25° C. Soluble recombinant antigens corresponding to the extracellular domains of members of the human TAM receptor family, Axl (rhAxl-Fc chimera; R&D Systems, Cat. no. 154-AL), Mer (rhMer-Fc chimera; R&D Systems, Cat. no. 891-MR) and Tyro3 (rhTyro3/Dtk-Fc chimera; R&D Systems, Cat. no. 859-DK) were immobilized on the surface of CM5 sensor chip using amine coupling at the surface density of 393.0, 303.6 and 364.0 resonance units (RU), respectively. The Biacore run was performed in an automatic mode using Binding to analysis wizard.

The target of assay [4] is T3, recombinant mouse Axl-Fc chimera (R&D Systems, Cat. no. 854-AX) (mouse, UniProt Q00993 19-445).
T3 construct: Bought soluble reagent; also called rmAxl-Fc; rmAxl; not shown: Fc part (and any linker or tag) of the bought chimera; not described
T3 sequence (Q00993 other isoform, or with tags, fused parts or gaps mutant): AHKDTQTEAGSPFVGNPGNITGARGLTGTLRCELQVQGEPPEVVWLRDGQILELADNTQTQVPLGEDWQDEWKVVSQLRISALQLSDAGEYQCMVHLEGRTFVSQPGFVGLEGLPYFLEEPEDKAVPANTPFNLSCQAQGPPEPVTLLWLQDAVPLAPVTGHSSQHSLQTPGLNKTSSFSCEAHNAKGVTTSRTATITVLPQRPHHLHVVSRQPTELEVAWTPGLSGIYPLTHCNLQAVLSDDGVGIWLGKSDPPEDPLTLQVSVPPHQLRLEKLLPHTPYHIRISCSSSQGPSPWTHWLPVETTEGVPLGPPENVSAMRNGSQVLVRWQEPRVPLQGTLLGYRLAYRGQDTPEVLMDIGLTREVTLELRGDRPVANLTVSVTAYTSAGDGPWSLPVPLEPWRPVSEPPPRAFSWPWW
Put plainly: SPR (Biacore 3000), rmAxl-Fc immobilised on a CM5 chip, antibody injected for 3 min [panel 10G5]. As for the experimental part: (§3) The binding experiments were performed using Biacore 3000 instrument (GE Healthcare) at 25° C. The soluble recombinant antigens corresponding to human Axl (rhAxl-Fc chimera; R&D Systems, Cat. no. 154-AL), mouse Axl (rmAxl-Fc chimera; R&D Systems, R&D Systems; Cat. no. 854-AX) and human Tyro3 (rhTyro3/Dtk-Fc chimera; R&D Systems, Cat. no. 859-DK) were immobilized on the surface of CM5 sensor chip using amine coupling at the surface density of 1,308.0, 2,115.9 and 1,429.0 RU, respectively. The Biacore runs were performed in an automatic mode using Binding analysis wizard.

The target in assay [5] is T4, recombinant human Tyro3/Dtk-Fc chimera (R&D Systems, Cat. no. 859-DK) (human, UniProt Q06418 41-429).
T4 construct: Bought reagent; also called rhTyro3/Dtk-Fc; rhTyro3; not shown: Fc part (and any linker or tag) of the bought chimera; not described
T4 sequence: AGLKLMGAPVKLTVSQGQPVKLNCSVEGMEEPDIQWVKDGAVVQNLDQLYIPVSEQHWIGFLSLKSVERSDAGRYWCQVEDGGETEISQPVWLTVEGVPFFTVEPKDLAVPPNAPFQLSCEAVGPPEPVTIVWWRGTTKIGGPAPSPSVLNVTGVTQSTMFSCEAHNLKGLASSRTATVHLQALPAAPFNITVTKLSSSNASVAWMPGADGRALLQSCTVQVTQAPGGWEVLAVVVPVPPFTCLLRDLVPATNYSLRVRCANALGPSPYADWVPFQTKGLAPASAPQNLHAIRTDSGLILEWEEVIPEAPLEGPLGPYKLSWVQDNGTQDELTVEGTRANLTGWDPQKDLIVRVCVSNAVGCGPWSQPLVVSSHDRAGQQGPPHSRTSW
Put plainly: SPR (Biacore 3000), rhTyro3/Dtk-Fc immobilised on a CM5 chip, antibody injected for 3 min [panel 10G5]. As for the experimental part:
as §2

The target in assay [6] is T5, recombinant cyno-Axl-Fc (extracellular domain of cynomolgus monkey Axl fused to human Fc) (cynomolgus monkey (Macaca fascicularis), UniProt P30530 26-451 (human entry)).
T5 construct: also called Axl from cynomolgus monkey; not shown: human Fc
T5 chain: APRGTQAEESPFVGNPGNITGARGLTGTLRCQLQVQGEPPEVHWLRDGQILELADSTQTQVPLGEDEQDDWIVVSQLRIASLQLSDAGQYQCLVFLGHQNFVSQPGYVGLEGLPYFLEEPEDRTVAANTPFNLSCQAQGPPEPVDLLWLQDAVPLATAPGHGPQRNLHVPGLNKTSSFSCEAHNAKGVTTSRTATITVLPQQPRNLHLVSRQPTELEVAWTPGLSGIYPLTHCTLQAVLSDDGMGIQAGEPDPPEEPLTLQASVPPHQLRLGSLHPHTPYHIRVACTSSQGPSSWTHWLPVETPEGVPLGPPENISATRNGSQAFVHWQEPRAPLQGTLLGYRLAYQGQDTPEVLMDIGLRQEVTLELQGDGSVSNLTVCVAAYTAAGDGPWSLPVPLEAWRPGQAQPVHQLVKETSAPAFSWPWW
Description: SPR (Biacore 3000), cyno-Axl-Fc immobilised on a CM5 chip, antibody injected at 10 µg/mL for 3 min, 5 min dissociation [panel 10G5]. As to the method:
(§4) The sequence of Axl receptor from cynomolgus monkey (Macace fascicularis; SEQ ID NO.43) was retrieved from WO2009062690A1. Based on the sequence, recombinant extracellular domain of cyno-Axl was generated by transient expression in CHO cells as a fusion protein with human Fc. […] The binding experiments were performed using Biacore 3000 instrument (GE Healthcare) at 25° C. […] The Biacore runs were performed in an automatic mode using Binding analysis wizard.

Assay [7] addresses T6, human Axl receptor on cells (Axl-positive MDA-MB-231 cells; HeLa cells; Axl+ cells) (human, UniProt P30530 26-894).
T6 construct: whole, on cells; Endogenous Axl of human cell lines; also called Axl-positive cells
Description: flow cytometry on MDA-MB-231 cells, detection with APC-conjugated donkey anti-human IgG (H+L) F(ab')2. As for the experimental part: The cell staining was measured using Accuri C6 flow cytometer (BD Biosciences). MFI, geometric mean fluorescence intensity.
For flow cytometry, the adherent cells in culture were washed with PBS, detached by treatment with trypsin (0.25%) for 1 min and hitting culture dish for full detachment. Trypsin was quenched by adding into the tissue flask the complete medium followed by washing the cells with PBS. During the washing steps, the cells were collected by centrifugation at 200 g for 5 min. The antibody was diluted for total concentration in PBS containing 0.02% bovine serum albumin (BSA). Cell staining was performed using 200 μL of cell suspension comprising 10⁵ cells for 20 min at room temperature. The cell-bound antibodies were detected with APC-conjugated donkey anti-human or anti-mouse, respectively, IgG (H+L) F(ab′)₂ fragments (Jackson ImmunoResearch). After two washing steps with PBS/0.02% BSA, the cells were resuspended in 200 μL and kept on ice before analysis on Accuri C6 flow cytometer (BD Biosciences).
(A flow cytometer gives signals particle by particle.)

In assay [8] the target is T2, recombinant human Mer-Fc chimera (R&D …). Put plainly: SPR (Biacore 3000), rhMer-Fc immobilised on a CM5 chip, antibody injected for 3 min [panel 10C9]. As to the method:
as §2

The target in assay [9] is T3, recombinant mouse Axl-Fc chimera (R&D …). Put plainly: SPR (Biacore 3000), rmAxl-Fc immobilised on a CM5 chip, antibody injected for 3 min [panel 10C9]. As to the method: as §3
Assay [10] concerns the target T4, recombinant human Tyro3/Dtk-Fc chimera …. Description: SPR (Biacore 3000), rhTyro3/Dtk-Fc immobilised on a CM5 chip, antibody injected for 3 min [panel 10C9]. As for the experimental part:
as §2

In assay [11] the target is T6, human Axl receptor on cells …. Put plainly: flow cytometry on MDA-MB-231 cells, detection with APC-conjugated donkey anti-mouse IgG (H+L) F(ab')2.
The target of assay [12] is T5, recombinant cyno-Axl-Fc (extracellular …). Description: SPR (Biacore 3000), cyno-Axl-Fc immobilised on a CM5 chip, antibody injected at 10 µg/mL for 3 min, 5 min dissociation [panel 10C9]. As for the experimental part:
as §4

The record followed here is patent US20190177419A1 (BERGEN TEKNOLOGIOVERFORING, published 2019).

B1: mouse monoclonal antibody 10G5 (from hybridoma WR-10G5-E5) (antibody, IgG1, V domains shown)
VH: QVQLQQSGAELVRPGASVKLSCKASGYSFTDFYINWVRQRPGQGLEWIARIFPGGDNTYYNEKFKGKATLTAEESSSTAYIQLSSLTSEDSAVYFCARRGLYYAMDYWGQGISVTVSS
VL: DVLMTQTPLSLPVSLGDQASISCRSSQSLVHSNGIPYLHWYLQKPGQSPKLLIYRVSNRFSGVPDRFSGSGSGTDFTLKISRVEAEDLGVYFCSQGTHVPPTFGGGTKLEIK
notes: Whole mouse antibody purified from hybridoma supernatant; also called MAb 10G5
One may read the Kd as the equilibrium constant for the complex coming apart. One may read the koff as a measure of how fast the partners let go of each other. One may read the kon as the second-order rate constant of association. B1: in assay [1], the “Half-life (t1/2)” value was found to be 26.3 min. Further, the Kd in assay [2] came out at 0.53 nM. Besides, the koff in assay [2] was found to be 0.000439 s⁻¹. In assay [2], the kon worked out at 829000 M⁻¹ s⁻¹. The binding result is “no binding (tested: 10 µg/mL)” in assay [3], “no binding (tested: 10 µg/mL)” in [4], “no binding (tested: 10 µg/mL)” in assay [5] and “binds” in assay [6].

B2: chimeric (mouse variable/human constant) IgG1 antibody c10G5 (antibody, V domains shown)
VH: QVQLQQSGAELVRPGASVKLSCKASGYSFTDFYINWVRQRPGQGLEWIARIFPGGDNTYYNEKFKGKATLTAEESSSTAYIQLSSLTSEDSAVYFCARRGLYYAMDYWGQGISVTVSS
VL: DVLMTQTPLSLPVSLGDQASISCRSSQSLVHSNGIPYLHWYLQKPGQSPKLLIYRVSNRFSGVPDRFSGSGSGTDFTLKISRVEAEDLGVYFCSQGTHVPPTFGGGTKLEIK
notes: 10G5 VH and VL joined in frame to human IgG1 and C-kappa constant domains, made in CHO cells; also called chimeric 10G5; not shown: constant domains of the human IgG1 heavy chain; constant domain of the human light (C-kappa) chain
As usually defined, the EC50 (read off the curve) is the concentration at which the effect is half-maximal. Regarding B2, the “Half-life (t1/2)” value in [1] was 68.4 min. Moreover, in assay [2], the Kd is 0.103 nM, the koff is 0.000169 s⁻¹ and the kon worked out at 1.64e+06 M⁻¹ s⁻¹. Besides, in assay [7], the “EC50 (read off the curve)” value is about 0.2 nM.

B3: mouse monoclonal antibody 10C9 (from hybridoma UT-10C9-B9) (antibody, IgG2b, V domains shown)
VH: QVQLQQPGPELVKPGASVKISCKTSDYNFTRYYIHWVKQRPGQGLEWIGWIYPGTGDSKYNEKFKGRATLTADTSSSTAYMQLSSQTSEDSAVYFCARNGNYWYFDVWGAGTAVTVSS
VL: DIVMTQAAPSGPVTPGESVSISCRSSKSLLHSNGNTYLYWFLQRPGQSPQLLIYRMSNLASGVPDRFSGSGSGTAFTLRISRVEAEDVGIYYCMQHREYPFTFGGGTKLEIK
notes: Whole mouse antibody purified from hybridoma supernatant; Possible N-glycosylation site (NFT) in CDR-H1; also called MAb 10C9
On to B3, for which, in assay [1], the “Half-life (t1/2)” value was 40 min. The Kd in [2] came out at 0.18 nM. Moreover, the koff in [2] was found to be 0.000289 s⁻¹. For the same molecule, the kon in [2] was 1.61e+06 M⁻¹ s⁻¹. Besides, the binding result in assay [8] is listed as “no binding (tested: 10 µg/mL)”; in assay [9], “no binding (tested: 10 µg/mL)”; in [10], “no binding (tested: 10 µg/mL)”; in assay [12], “binds”. Further, in assay [11], the concentration giving a half-maximal response (EC50 (read off the curve)) is about 0.2 nM.

B4: chimeric (mouse variable/human constant) IgG1 antibody c10C9 (antibody, V domains shown)
VH: QVQLQQPGPELVKPGASVKISCKTSDYNFTRYYIHWVKQRPGQGLEWIGWIYPGTGDSKYNEKFKGRATLTADTSSSTAYMQLSSQTSEDSAVYFCARNGNYWYFDVWGAGTAVTVSS
VL: DIVMTQAAPSGPVTPGESVSISCRSSKSLLHSNGNTYLYWFLQRPGQSPQLLIYRMSNLASGVPDRFSGSGSGTAFTLRISRVEAEDVGIYYCMQHREYPFTFGGGTKLEIK
notes: 10C9 VH and VL joined in frame to human IgG1 and C-kappa constant domains, made in CHO cells; also called chimeric 10C9; not shown: constant domains of the human IgG1 heavy chain; constant domain of the human light (C-kappa) chain
In the case of B4, in assay [1], the “Half-life (t1/2)” value was 52.8 min. Further, in assay [2], the Kd came to 0.102 nM, the koff was 0.000219 s⁻¹ and the kon is 2.16e+06 M⁻¹ s⁻¹. In addition, in assay [7], the “EC50 (read off the curve)” value was about 0.2 nM.
